B1: CPEB3 Ribozyme (parent)
chain: UAACAGGGGGCCACAGCAGAAGCGUUCACGUCGCAGCCCCUGUCAGAUUCUGGUGAAUCUGCGAAUUCUGCUGUAUAUCUC

In the data set the parent is B1. Nature of the data set: self-cleavage, relative activity (ratio to wild type); higher = more cleavage; in vitro, sequencing. The method, boiled down: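 Relative activity compares each variant's cleaved/total read fraction with that of the unmutated ribozyme. To get these fractions, barcoded CPEB3 ribozyme libraries from rounds of error-prone PCR were transcribed with T7 RNA polymerase for 5 hours at 37°C and then given 15 min of DNase I treatment before EDTA was added. The RNAs were reverse transcribed with template switching and sequenced on Illumina, and DNA sequencing linked barcodes to variants. A minimum of 5 reads applied, and three batches were averaged.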
Take C12A: the self-cleavage stood at 1.15.
As for C12U, the self-cleavage amounted to 1.25.
Then C12G, with 0.59; and C11U G63A, with 0.24.
To A13C A21U belongs 0.49; to C11U U76C, 0.43.
In the case of C12G C29G, the self-cleavage was 0.24.
Then C12U A15U, with 1.23; and C12U A15G, with 0.86.
As for C11U A75G, the self-cleavage worked out at 0.32.
Consider C11U A75U, for which the self-cleavage came to 0.43.
Consider C12U C71U, for which the self-cleavage is 0.58.
For the variant C12A U67A, the self-cleavage turned out to be 0.69.
In the case of C12A U67C, the self-cleavage came to 0.33.
To C11U A21G belongs 0.28.
Then C12A A15G, with 1.19; and C12A A15C, with 1.17; and A13C A45U, with 0.44.
C11U G73A: the self-cleavage was determined as 1.25.
For C12U A64G, the self-cleavage was 1.41.
In the case of C12U A64U, the self-cleavage came to 0.83.
In the case of C11U U41C, the self-cleavage was determined as 0.51.
Then C11U U41A, with 0.3; and C11U C12U, with 0.56; and C11U U60C, with 0.14.
Take C11G U78A: the self-cleavage was 0.8.
C11G U78C: the self-cleavage is 0.43.
Take C11G U78G: the self-cleavage was 0.59.
As to C12A G24U, the self-cleavage came to 0.33.
To C11U U26C belongs 0.31; to C11U U26A, 0.36.
With C12U C79A, the self-cleavage turned out to be 1.19.
Then C11U C40U, with 0.27; and C12A A45U, with 0.49.
Take C12A A45G: the self-cleavage amounted to 1.04.
For the variant C11U U25C, the self-cleavage was found to be 0.22.
As for C11U U25A, the self-cleavage came out at 0.38.
As for C11U U80A, the self-cleavage was 0.31.
Then C11U U80C, with 0.45; and C12G A64U, with 0.13; and C12U U49C, with 1.01.
Regarding C11U U67A, the self-cleavage was 0.36.
C11U U67G: the self-cleavage was determined as 0.18.
For C11U U67C, the self-cleavage was 0.18.
Turning to C12U A57G, the self-cleavage is 1.26.
Consider C11U G53U, for which the self-cleavage came out at 0.43.
In the case of C11U G53C, the self-cleavage is 0.4.
To C12U U25C belongs 0.38; to C12U U25G, 0.7.
Then C12U U72C, with 1.24; and C12U U72A, with 1.1.
Consider C12G G24A, for which the self-cleavage is 0.19.
C11G U69C: the self-cleavage came out at 0.25.
Then C11G U69G, with 0.14.
C11G U69A: the self-cleavage amounted to 0.11.
As for C11U A18U, the self-cleavage came out at 0.24.
Then C11U A18G, with 0.31; and C11U A18C, with 0.39.
Take C12G C38A: the self-cleavage turned out to be 0.36.
Turning to C12G C27A, the self-cleavage is 0.09.
Then C12G C27U, with 0.18.
Take C12G G30A: the self-cleavage is 0.29.
To C12U C34A belongs 0.68; to C11U A13U, 0.49; to C11U A13G, 0.43.
To C11U A13C belongs 0.09.
On to C12U C44A, for which the self-cleavage turned out to be 0.94.
On to C12G U72A, for which the self-cleavage came to 0.29.
Regarding C11U U78C, the self-cleavage turned out to be 0.33.
As for C11U U78A, the self-cleavage was determined as 0.53.
With C12A U72C, the self-cleavage amounted to 1.19.
Take C11U U69A: the self-cleavage is 0.24.
For C11G U76C, the self-cleavage was determined as 0.61.
In the case of C11G U76A, the self-cleavage came to 0.49.
For the variant C11G U58A, the self-cleavage came to 0.39.
In the case of C11U A45G, the self-cleavage came to 0.2.
Consider C11U A45U, for which the self-cleavage worked out at 0.27.
With C12A U25C, the self-cleavage was found to be 0.42.
Consider C12U A13C, for which the self-cleavage was 1.16.
For C12U A13U, the self-cleavage turned out to be 1.15.
With C12U A13G, the self-cleavage came out at 0.74.
C12U C40U: the self-cleavage was 1.12.
As to A13C A15U, the self-cleavage turned out to be 1.
For the variant A13C A15G, the self-cleavage is 1.07.
To C12U C81U belongs 1.22.
As to C11U U54C, the self-cleavage amounted to 0.43.
C11U U54A: the self-cleavage was 0.45.
Consider C12U U74A, for which the self-cleavage amounted to 1.3.
C12U U74G: the self-cleavage was determined as 1.25.
Turning to C12U C23U, the self-cleavage was 0.52.
As for C11U A47G, the self-cleavage amounted to 0.36.
Take C11U A47U: the self-cleavage is 0.31.
To C12U G63A belongs 1.39; to C12U G63C, 1.26; to C12G U66C, 0.24.
In the case of C12G A65U, the self-cleavage was 0.1.
To C12G A65G belongs 0.18.
Then C11G U54A, with 0.28; and C11G U54C, with 0.49.
As to C12U G46A, the self-cleavage was 0.68.
In the case of C12G A57G, the self-cleavage was 0.41.
C12G C17G: the self-cleavage worked out at 0.27.
To C12A A18U belongs 0.48; to C12A C68G, 0.52.
Regarding C12A A57G, the self-cleavage came to 1.06.
For the variant C12U U48C, the self-cleavage was determined as 1.18.
As for C12U U48G, the self-cleavage stood at 0.94.
C11G U72C: the self-cleavage is 0.69.
In the case of C11U U43C, the self-cleavage amounted to 0.35.
For C11U U43A, the self-cleavage was 0.68.
Then C11U G33C, with 0.14.
As to C11U G33U, the self-cleavage is 0.19.
For the variant C11U G33A, the self-cleavage amounted to 0.42.
Turning to C12U G53A, the self-cleavage came to 1.18.
Regarding C11U G19U, the self-cleavage was 0.07.
As for C12U U78C, the self-cleavage amounted to 1.23.
With C12U U78A, the self-cleavage is 1.28.
Then C12U C17U, with 1.13; and C12G U41G, with 0.14.
In the case of C12G U41C, the self-cleavage was found to be 1.09.
For C12G U31C, the self-cleavage is 0.92.
To C11U A64G belongs 0.34.
For the variant C12A U78C, the self-cleavage amounted to 1.04.
On to C12A U78A, for which the self-cleavage is 1.21.
Then C11U U49A, with 0.32; and C11U U49C, with 0.24.
To C11U C68A belongs 0.11.
As for C12A U26A, the self-cleavage came to 1.08.
For C11U A28U, the self-cleavage was 0.34.
As to C12G A13G, the self-cleavage came out at 0.71.
To C12G A13U belongs 1.14; to C12G A13C, 0.72; to C11U G42A, 0.
With C12A U31C, the self-cleavage was 1.14.
As for C12A U31A, the self-cleavage amounted to 0.65.
For C11U C23U, the self-cleavage turned out to be 0.24.
Regarding C12U U76C, the self-cleavage was 1.31.
Consider C12A U60C, for which the self-cleavage came out at 0.3.
Regarding C11G U49G, the self-cleavage was 0.31.
Consider C11G U49A, for which the self-cleavage stood at 0.6.
Turning to C12A U69A, the self-cleavage came out at 0.7.
Consider C12A U69C, for which the self-cleavage stood at 0.72.
On to C11U A77U, for which the self-cleavage was 0.47.
For the variant C11U A77G, the self-cleavage is 0.41.
Consider C12G U78C, for which the self-cleavage was 0.71.
Take C12A U74G: the self-cleavage was found to be 1.28.
As to C12U A20U, the self-cleavage is 0.38.
With C12U A20G, the self-cleavage came out at 1.19.
With C12U A21U, the self-cleavage amounted to 1.
Take C12U A21G: the self-cleavage was 0.86.
As for C12A A56G, the self-cleavage worked out at 0.87.
With C12A A56U, the self-cleavage amounted to 0.81.
Take C12A U43A: the self-cleavage came out at 0.99.
Then C12A G46U, with 0.38; and C11G U48C, with 0.11.
For the variant C11U A56U, the self-cleavage is 0.33.
On to C11U A56G, for which the self-cleavage turned out to be 0.32.
As to C12G A45C, the self-cleavage came to 0.12.
Then C12U U43A, with 1.24; and C12U U43C, with 1.11; and C12A A20U, with 0.32.
Turning to C12A A20G, the self-cleavage stood at 1.17.
To C12U G70A belongs 1.06; to C12G A18U, 0.35; to C12G A18G, 0.17.
In the case of C11U U74C, the self-cleavage was 0.83.
Then C11U U74A, with 0.96.

Values taken from the RNAGym collection of RNA variant scans (doi:10.1093/nar/gkz1192).
